# Laboratory results from US20050221459A1 (DUKE UNIVERSITY, published 2005).
# Ends that are not written are not given here. * marks the point of attachment. Geranylgeranyl = CC(C)=CCC/C(C)=C/CC/C(C)=C/CC/C(C)=C/C*; Farnesyl = CC(C)=CCC/C(C)=C/CC/C(C)=C/C*
# Assays:
# [1] = biological target: T1, Rat protein geranylgeranyl transferase type I (GGTase-I) (rat, UniProt Q04631 1-377; P53610 1-377); experiment: X-ray crystal structure, ternary complex with 3'azaGGPP
# Description: Rat GGTase-I was expressed and purified as previously described herein (see also SAtrickland et al., 1999). […] GGTase-I product co-crystals were first transferred stepwise from their mother liquor (1.3 M NH₄SO₄, 175 mM Na₃-citrate, 100 mM MES pH 6.3, and 20 mM DTT) to cyro-solvent (30% (w:v) sucrose, 900 mM Na₃-citrate, 100 mM MES pH 6.3, 10 mM TCEP, and 1 μM ZnCl₂) supplemented with 0.2 mM 3′azaGGPP and 0.2 mM of the appropriate Ca₁a₂X peptide (Sigma-Genosys, >95% purity). All crystals were soaked for a week to allow for ternary complex formation and flash-cooled in liquid nitrogen.
# (§1) Diffraction data were collected at 100 K with an R-Axis IV image plate system (Molecular Structure Corp., The Woodlands, Tex., United States of America) mounted on a Rigaku RU-H3R rotating anode generator with double mirror optics (Molecular Structure Corp.). Diffraction data were also collected at the BioCARS and SER-CAT beamlines at the Advanced Photon Source, Argonne National Labs and at the X25 beamline at the National Synchrotron Light Source, Brookhaven National Labs (BNLNSLS).
# [2] = biological target: T2, Rat protein farnesyltransferase (rFTase) (rat, UniProt Q04631 1-377; Q02293 1-437); experiment: X-ray crystal structure, FTase complexed with FPT-II and peptide (FIG. 16)
# From the text: (§2) The FTase:FPTII: Ca₁a₂X complexes were transferred to cryoprotection solutions and flash-cooled in liquid nitrogen.
# as §1
# (§3) The structures were determined by rigid body refinement using either rat FTase (Brookhaven Protein Data Bank code 1 D8D) or human FTase (Brookhaven Protein Data Bank code 1JCQ) as the initial model with ligands removed. […] After rigid body refinement, FPT-II and the Ca₁a₂X peptides were fit into σA weighted Fₒ-Fc maps and the complexes refined against all data with |F|≧0 by iterative cycles of simulated annealing, minimization, individual B-factor refinement, and model building. Refinements were carried out using CNS v1.0 (Brünger et al., 1998) and models built using O (Jones et al., 1991).
# [3] = biological target: T1, Rat protein geranylgeranyl transferase …; experiment: X-ray crystal structure, ternary Complex 2 with 3'AzaGGPP
# Description: (§4) GGTase-I crystals were grown at 17° C. in hanging drops using equal volumes of protein and reservoir solution (1.3 M NH₄SO₄, 175 mM Na₃ citrate pH 6.5, 20 mM DTT and 100 mM MES, pH 6.3). Micro-seeds were added after equilibration to control nucleation. Seeding solution was produced by crushing GGTase-I crystals in stabilizing solution (1.5 M NH₄SO₄, 175 mM Na₃ citrate pH 6.5, 5 mM ZnCl₂, 20 mM DTT and 100 mM MES, pH 6.3). […] For data collection crystals were transferred stepwise into cryosolvent (30% (w:v) sucrose, 1.8 M NH₄SO₄, 5 mM ZnCl₂, 10 mM TCEP, and 100 mM MES, pH 6.3) before flash-freezing in liquid nitrogen. Derivative crystals were soaked 18 hours in cryosolvent containing 1 mM Di-m-iodobis (ethylenediamine) diplatinum (II) nitrate (PIP) and no TCEP.
# [4] = biological target: T2, Rat protein farnesyltransferase (rFTase); experiment: co-crystal of the product complex
# [5] = biological target: T1, Rat protein geranylgeranyl transferase …; experiment: X-ray crystal structure, product Complex 3
# Description: as §4
# [6] = biological target: T2, Rat protein farnesyltransferase (rFTase); experiment: X-ray crystal structure, ternary complex with FPT-II
# From the text: as §2, §1, §3
# [7] = biological target: Human protein farnesyltransferase (hFTase) (human, UniProt P49354 1-379; P49356 1-437); experiment: as above
# From the text: as §2, §1, §3
Binder,binding result [1],other results
"FREKKFFCAIL (Synthetic, Sigma-Genosys, >95% purity; also called y2) [heterotrimeric G protein γ2 subunit peptide FREKKFFCAIL (SEQ ID NO: 13)]",binds,
"KKSKTKCKVL (Synthetic, Sigma-Genosys, >95% purity) [RhoB peptide KKSKTKCKVL (SEQ ID NO: 12)]",binds,
"GCVLS (Synthetic, Sigma-Genosys, >95% purity; also called H-Ras (CVLS)) [H-Ras peptide GCVLS (SEQ ID NO: 6)]",,binding result [2]: binds
"RRCVLL (Synthetic, Sigma-Genosys, >95% purity; also called Cdc42-II) [Cdc42 splice isoform 2 peptide RRCVLL (SEQ ID NO: 14)]",binds,
"GCINCCKVL (Synthetic, Sigma-Genosys, >95% purity) [RhoB peptide GCINCCKVL (SEQ ID NO: 11)]",binds,
"KKKSKTKCVIL (Synthetic, Sigma-Genosys, >95% purity; also called Rap2b chimera peptide; CVIL peptide) [Ca1a2X peptide KKKSKTKCVIL (SEQ ID NO: 1)]",,binding result [3]: binds
"KKKSKTKC(Farnesyl)VIM (Product co-crystal with FTase, used as starting material for the TC21 soak; also called farnesylated product) [farnesylated-KKKSKTKCVIM product (SEQ ID NO: 8)]",,binding result [4]: binds
KKKSKTKC(Geranylgeranyl)VIL (also called prenyl-peptide product; prenylated product) [geranylgeranylated-KKKSKTKCVIL product (SEQ ID NO: 1)],,binding result [5]: binds
"DDPTASACNIQ (Synthetic, Sigma-Genosys, >95% purity; also called Rap2a (CNIQ)) [Rap2a peptide DDPTASACNIQ (SEQ ID NO: 10)]",,binding result [7]: binds

# The next lines start with results.
binding result [1],Binder,other results
binds,"KKKSKTKCVIM (Synthetic, Sigma-Genosys, >95% purity; also called K-Ras4B (CVIM)) [K-Ras4B peptide KKKSKTKCVIM (SEQ ID NO: 8)]",
binds,"KKSKTKCVIF (Synthetic, Sigma-Genosys, >95% purity; also called TC21 (CVIF)) [TC21 peptide KKSKTKCVIF (SEQ ID NO: 9)]",binding result [6]: binds
